EC50 data for one substance are collected here from article PMC10945275.

Some targets named below: wild-type EGF receptor (UniProt P00533); R84K-EGF receptor (UniProt P00533); G574V-EGF receptor (UniProt P00533); A265V-EGF receptor (UniProt P00533).
Assay in all cases: radioligand binding

pEC50: −log10 of the molar value.

The pEC50 is −log10 of the EC50, conventionally taken in molar units. As for 125I-EGF (ligand), the pEC50 was 9.12 with wild-type EGF receptor, 10.44 with R84K-EGF receptor, 9.77 with G574V-EGF receptor and 9.55 with A265V-EGF receptor.
